Laboratory results published in patent US20230303690A1 (published 2023).
Where two headings read alike, the source gives them in different places.

How the values were obtained:
[1] = target: T1, human LAG3 expressed on cells (human, UniProt P18627 23-525); assay: cell-based or functional assay
T1 sequence (looked up): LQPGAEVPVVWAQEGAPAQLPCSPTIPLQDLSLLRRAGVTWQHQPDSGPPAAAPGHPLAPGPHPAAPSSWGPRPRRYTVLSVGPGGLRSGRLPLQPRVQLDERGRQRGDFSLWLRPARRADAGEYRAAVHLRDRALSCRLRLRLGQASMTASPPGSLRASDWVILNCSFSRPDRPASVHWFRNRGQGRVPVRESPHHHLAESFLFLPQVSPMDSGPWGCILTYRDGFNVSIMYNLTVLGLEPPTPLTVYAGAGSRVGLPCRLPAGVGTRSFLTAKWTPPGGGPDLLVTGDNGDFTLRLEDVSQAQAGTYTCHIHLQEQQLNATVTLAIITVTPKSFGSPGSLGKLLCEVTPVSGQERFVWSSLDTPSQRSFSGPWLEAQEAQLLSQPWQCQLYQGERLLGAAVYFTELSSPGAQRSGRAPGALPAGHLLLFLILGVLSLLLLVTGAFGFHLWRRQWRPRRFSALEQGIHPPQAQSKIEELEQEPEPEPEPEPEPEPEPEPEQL

[2] = target: T1, human LAG3 expressed on cells; assay: FACS, 293T-hLAG3 cells
Procedure: 5) The prepared antibody samples were added to the 96-well plate according to the platemap, the cells were resuspended and incubate at 4° C. for 1 hour.
7) 3% BSA/1xPBS was used to dilute Goat polyclonal Secondary Antibody to Human IgG-Fc (DyLight® 650) to the desired concentration (1:200), in which the cells were resuspended and incubated at 4° C. for 1 hour.
9) The cells were resuspended in 200 µl of 3% BSA/1xPBS, and performed flow cytometric testing by Shsti Biotech Inc.

[3] = target: T2, LAG3 Protein, Human, Recombinant (His Tag) (Sino Biological Catalog No. 16498-H08H) (human, UniProt P18627 23-450); assay: ELISA, coated hLAG3-His
T2 construct: Bought protein; also called hLAG3-His; LAG3-His; not shown: His tag
T2 sequence (looked up): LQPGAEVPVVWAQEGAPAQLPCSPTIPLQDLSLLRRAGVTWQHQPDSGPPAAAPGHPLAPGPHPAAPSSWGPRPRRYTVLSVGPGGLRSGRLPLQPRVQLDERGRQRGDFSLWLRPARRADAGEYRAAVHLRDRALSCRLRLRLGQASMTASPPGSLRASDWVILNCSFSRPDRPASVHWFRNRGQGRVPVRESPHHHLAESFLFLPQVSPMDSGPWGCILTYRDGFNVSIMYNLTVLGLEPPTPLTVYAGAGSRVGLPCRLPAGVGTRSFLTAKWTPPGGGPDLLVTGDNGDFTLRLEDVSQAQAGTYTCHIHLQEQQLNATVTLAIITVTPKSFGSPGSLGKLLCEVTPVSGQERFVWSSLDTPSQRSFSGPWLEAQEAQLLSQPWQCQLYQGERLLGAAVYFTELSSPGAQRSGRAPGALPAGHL
Procedure: (§1) Plates were coated with 100 µL per well of Coating Solution, and then covered, and incubated overnight (12-18 hours) at 2-8° C. The wells were aspirated and washed 1 time with >200 µL of Wash buffer per well, inverted and tapped on absorbent paper to remove excess liquid. The plates were blocked with 200 µL per well with Blocking buffer (1×PBS+4% milk) for 1 hour at room temperature, aspirated, inverted, and tapped on absorbent paper to remove excess liquid. Standards and sample dilutions were prepared in Blocking buffer. 100 µL of standards (in duplicate) and samples were pipetted into designated wells. After incubation for 1 hour at room temperature with gentle continual shaking (~500 rpm), the wells were aspirate and washed 3 times with >200 µL of Wash buffer per well, inverted and tapped on absorbent paper to remove excess liquid.
(§2) The primary antibody solution was diluted with Blocking buffer. See Table 14 for recommended primary antibody dilution. 100 µL of the primary antibody solution was added into each well and incubated for 2 hours at room temperature with gentle continual shaking (~500 rpm). The wells were aspirated and washed 3 times with >200 µL of Wash buffer per well, inverted and tapped on absorbent paper to remove excess liquid. The working solution of secondary antibody was made with Blocking buffer by diluting the secondary antibody by 2,500 times. 100 µL of secondary antibody working solution was added into each well and incubated for 30 minutes at room temperature. The wells were aspirated and washed 5 times with >200 µL of Wash buffer per well, inverted and tapped on absorbent paper to remove excess liquid. 100 µL of TMB substrate solution (Biopanda, TMB-S-004) was added to each well and incubated for 30 minutes at room temperature. 100 µL of Stop solution (Solarbio, C1058) was added to each well. Absorbance at 450 nm was measured within 30 minutes of adding Stop solution. Results were calculated using a log-log or 4-parameter curve fit.

[4] = target: T2, LAG3 Protein, Human, Recombinant (His …); assay: ELISA, coated hLAG3-His; remark: listed apart in the source
Procedure: as §1
as §2, with “well.” for “well. Absorbance at 450 nm was measured within 30 minutes of adding Stop solution. Results were calculated using a log-log or 4-parameter curve fit.”

B1: sdAb No. 25 (VHH)
VHH: QLQLVESGGGLVQAGGSLRLSCAASGSIESFSFMGWYRQAPGKQRELVAGFTGAASLSFSTYTDAVKGRFTISRDNAKNTVYLQMNSLKPEDTAVYFCNVDPWSQSWPGRYWGQGTQVTVSS
notes: Fc of the tested form not described; also called sdAb 25; sdAb #25; not shown: Fc part implied by anti-human Fc capture and anti-human IgG Fc detection
In the case of B1, the “IL-2, % of BMS, at 0.005080526 ug/mL” value [1] is reported as 3.24%, the “IL-2, % of BMS, at 0.015241579 ug/mL” value [1] is reported as -0.59% and the “IL-2, % of BMS, at 0.045724737 ug/mL” value [1] is reported as 8.03%. For the same binder, the “IL-2, % of BMS, at 0.137174211 ug/mL” value [1] was 2.39%, the “IL-2, % of BMS, at 0.411522634 ug/mL” value [1] was 9.2% and the “IL-2, % of BMS, at 1.234567901 ug/mL” value [1] was 25.1%. For the same binder, the “IL-2, % of BMS, at 3.703703704 ug/mL” value [1] was 30.6%, the “IL-2, % of BMS, at 11.11111111 ug/mL” value [1] was 34.1% and the “IL-2, % of BMS, at 33.33333333 ug/mL” value [1] was 39.8%. The “IL-2, % of BMS, at 100 ug/mL” value [1] was 53.7%, the EC50 [2] was 1.48 nM and the “FACS signal at 0.061 nM” value [2] was 99.2. For the same binder, the “FACS signal at 0.1829 nM” value [2] was 247, the “FACS signal at 0.5487 nM” value [2] was 618 and the “FACS signal at 1.6461 nM” value [2] was 1410. The “FACS signal at 4.9383 nM” value [2] was 2000, the “FACS signal at 14.815 nM” value [2] was 2280 and the “FACS signal at 44.445 nM” value [2] was 2540. The “FACS signal at 133.335 nM” value [2] was 2580, the EC50 [3] was 3.45 nM and the “OD450 at 0.061 nM” value [3] was 0.037. The “OD450 at 0.1829 nM” value [3] was 0.042, the “OD450 at 0.5487 nM” value [3] was 0.06 and the “OD450 at 1.6461 nM” value [3] was 0.233. For the same binder, the “OD450 at 4.9383 nM” value [3] was 0.643, the “OD450 at 14.815 nM” value [3] was 0.85 and the “OD450 at 44.445 nM” value [3] was 0.882. The “OD450 at 133.335 nM” value [3] was 1.02.

B2: sdAb No. 27 (VHH)
VHH: QVQLVESGGGLVQPGGSLRLSCAASGFTLDYYAIGWFRQAPGKEREGVSCIRSSDGSTYYADSVKGRFTISSDNTKNTVYLQMNSLKPEDTAVYYCATDRYSDCRGPYENWGQGTQVTVSS
notes: Fc of the tested form not described; also called sdAb 27; not shown: Fc part implied by anti-human Fc capture and anti-human IgG Fc detection
B2 was tested, and the EC50 [4] was 3.14 nM, the “OD450 at 0.004572 ug/ml” value [4] was 0.039 and the “OD450 at 0.013717 ug/ml” value [4] was 0.042. For the same binder, the “OD450 at 0.041152 ug/ml” value [4] was 0.063, the “OD450 at 0.123457 ug/ml” value [4] was 0.331 and the “OD450 at 0.37037 ug/ml” value [4] was 1.5. For the same binder, the “OD450 at 1.111111 ug/ml” value [4] was 1.84, the “OD450 at 3.333333 ug/ml” value [4] was 1.77 and the “OD450 at 10 ug/ml” value [4] was 2.15. The “IL-2, % of BMS, at 0.005080526 ug/mL” value [1] was 5.57%, the “IL-2, % of BMS, at 0.015241579 ug/mL” value [1] was 13.4% and the “IL-2, % of BMS, at 0.045724737 ug/mL” value [1] was 12.1%. For the same binder, the “IL-2, % of BMS, at 0.137174211 ug/mL” value [1] was 18%, the “IL-2, % of BMS, at 0.411522634 ug/mL” value [1] was 27.3% and the “IL-2, % of BMS, at 1.234567901 ug/mL” value [1] was 36.5%. The “IL-2, % of BMS, at 3.703703704 ug/mL” value [1] was 43.4%, the “IL-2, % of BMS, at 11.11111111 ug/mL” value [1] was 50% and the “IL-2, % of BMS, at 33.33333333 ug/mL” value [1] was 52.9%. The “IL-2, % of BMS, at 100 ug/mL” value [1] was 52.8%, the EC50 [2] was 1.77 nM and the “FACS signal at 0.061 nM” value [2] was 163. The “FACS signal at 0.1829 nM” value [2] was 393, the “FACS signal at 0.5487 nM” value [2] was 1010 and the “FACS signal at 1.6461 nM” value [2] was 2240. The “FACS signal at 4.9383 nM” value [2] was 3570, the “FACS signal at 14.815 nM” value [2] was 4130 and the “FACS signal at 44.445 nM” value [2] was 4490. For the same binder, the “FACS signal at 133.335 nM” value [2] was 4630, the EC50 [3] was 4.7 nM and the “OD450 at 0.061 nM” value [3] was 0.037. For the same binder, the “OD450 at 0.1829 nM” value [3] was 0.042, the “OD450 at 0.5487 nM” value [3] was 0.059 and the “OD450 at 1.6461 nM” value [3] was 0.257. For the same binder, the “OD450 at 4.9383 nM” value [3] was 1.04, the “OD450 at 14.815 nM” value [3] was 1.57 and the “OD450 at 44.445 nM” value [3] was 1.77. For the same binder, the “OD450 at 133.335 nM” value [3] was 1.95.

B3: sdAb No. 17 (VHH)
VHH: QLQLVESGGGLVQPGGSLRLSCAASGLTLDGYAIGWFRQAPGKEREGLACISGSDGSTHYLDSVKGRFTISRDNGKNTMALQMNSLQFGDTAIYYCAARRGSCSGSWTYWGQGTQVTVSS
notes: Fc of the tested form not described; also called sdAb 17; not shown: Fc part implied by anti-human Fc capture and anti-human IgG1 Fc detection
Binder B3 has an EC50 [4] of 2.17 nM.
